Patent US12092631B2, “Optical thromboelastography systems and methods” (The General Hospital Corporation, priority 2014, dated 2024)

Tested on: human blood samples
Test: OTEG fibrinolysis measurement (LY15) in human blood samples spiked with tPA
Conditions: human blood spiked with 0.5 μg/ml tPA (14% at 0 μg/ml), three repeated measurements, FIG. 13
Method: Dilutional coagulopathy is generated by serially diluting whole blood (30-60%) with phosphate buffer saline (PBS) solution to vary MA (FIGS. 9A, 9B, 9C). Diluted blood is treated with low to high doses of fibrinogen concentrate (80-160 μL) which also varies MA. Undiluted blood is treated with unfractionated heparin to reach a maximum concentration of 1 U/ml to vary PT, R and K times. To induce fibrinolysis, blood is spiked with varying concentrations of tissue plasminogen activator (tPA) to alter % LY (FIGS. 10A, 10B). Thrombocytopenia or low platelet count is achieved by blood centrifugation, and substitution of platelet-rich with platelet-poor plasma at varying doses, followed by subsequent reconstitution. […]
FIGS. 12, 12B, 12C, 12D, and 12E illustrate the effect of tissue plasminogen activator (tPA) on blood coagulation parameters (Clot Reaction Time, Clotting Time, Clot Progression Rate, Clot Stiffness, and Fibrinolysis) measured with OTEG according to an embodiment of the invention and TEG. […]
FIG. 13 illustrates reproducibility in OTEG-based fibrinolysis measurement of the parameter LY15 in human blood samples spiked with 0-0.5 μg/ml of tPA. The concentration of tPA from 0 to 0.5 μg/ml increases the fibrinolysis from 14% to 51%, which can be successfully detected with an embodiment of the invention. […]

B1: tPA: tissue plasminogen activator, spiked into blood to activate fibrinolysis (protein, UniProt P00750 36-562, looked up)
Tissue-type plasminogen …: SYQVICRDEKTQMIYQQHQSWLRPVLRSNRVEYCWCNSGRAQCHSVPVKSCSEPRCFNGGTCQQALYFSDFVCQCPEGFAGKCCEIDTRATCYEDQGISYRGTWSTAESGAECTNWNSSALAQKPYSGRRPDAIRLGLGNHNYCRNPDRDSKPWCYVFKAGKYSSEFCSTPACSEGNSDCYFGNGSAYRGTHSLTESGASCLPWNSMILIGKVYTAQNPSAQALGLGKHNYCRNPDGDAKPWCHVLKNRRLTWEYCDVPSCSTCGLRQYSQPQFRIKGGLFADIASHPWQAAIFAKHRRSPGERFLCGGILISSCWILSAAHCFQERFPPHHLTVILGRTYRVVPGEEEQKFEVEKYIVHKEFDDDTYDNDIALLQLKSDSSRCAQESSVVRTVCLPPADLQLPDWTECELSGYGKHEALSPFYSERLKEAHVRLYPSSRCTSQHLLNRTVTDNMLCAGDTRSGGPQANLHDACQGDSGGPLVCLNDGRMTLVGIISWGLGCGQKDVPGVYTKVTNYLDWIRDNMRP
- fibrinolysis (LY15): 51%
